Measured values: paper PMC4619345, “Key Amino Acids in the Bacterial (6-4) Photolyase PhrB from Agrobacterium fabrum”
Changes are numbered by the printed parent chain.

T1: PhrB (Agrobacterium fabrum, UniProt A9CH39 1-507)
T1 sequence: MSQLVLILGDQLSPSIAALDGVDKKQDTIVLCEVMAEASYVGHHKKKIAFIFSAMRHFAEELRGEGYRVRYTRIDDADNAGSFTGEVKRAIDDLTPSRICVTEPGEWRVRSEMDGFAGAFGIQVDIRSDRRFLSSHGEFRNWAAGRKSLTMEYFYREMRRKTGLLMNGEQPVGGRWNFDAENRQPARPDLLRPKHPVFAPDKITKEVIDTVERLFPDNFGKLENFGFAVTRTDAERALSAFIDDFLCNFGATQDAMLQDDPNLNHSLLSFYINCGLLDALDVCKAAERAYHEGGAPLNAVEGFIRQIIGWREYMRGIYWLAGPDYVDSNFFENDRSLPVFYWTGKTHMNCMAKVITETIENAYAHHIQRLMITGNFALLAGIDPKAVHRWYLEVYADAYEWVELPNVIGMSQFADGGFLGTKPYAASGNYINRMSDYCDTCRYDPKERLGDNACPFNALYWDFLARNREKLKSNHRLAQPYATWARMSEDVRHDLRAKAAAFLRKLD

T2: PhrB Y430F (Agrobacterium fabrum, UniProt A9CH39 1-507, Y430F)
T2 sequence: T1 sequence with Y430F

T3: PhrB Y460F (Agrobacterium fabrum, UniProt A9CH39 1-507, Y460F)
T3 sequence: T1 sequence with Y460F

T4: PhrB Y424F (Agrobacterium fabrum, UniProt A9CH39 1-507, Y424F)
T4 sequence: T1 sequence with Y424F

B1: EMSA_1 (6-4)TT photoproduct (ssDNA)
DNA: CATAGGTTGGCATA
modifications: (6-4) photoproduct at T7-T8 (the only TT; 254 nm UV, HPLC purified)
B2: EMSA_1 undamaged (ssDNA)
DNA: CATAGGTTGGCATA

Key:
Conditions in all cases: protein: recombinant; tags: C-terminal poly-His (pET21); label: 5' 32P; single strand
PhrB = molecular target: T1, PhrB; assay: EMSA; reduced FAD, darkness; EMSA in repair buffer (buffer 1: 50 mM Tris-HCl pH 7.0, 1 mM EDTA, 100 mM NaCl, 5% glycerol, 20 mM DTT; or buffer 2: pH 7.5, 10 mM DTT; which one not stated), 28 nM DNA, 10% TBE-PAGE at 4 C in darkness
PhrB Y430F = molecular target: T2, PhrB Y430F; assay: EMSA; reduced FAD, darkness; […] (buffer 1: 50 mM Tris-HCl pH 7.0, 1 mM EDTA, 100 mM NaCl, 5% glycerol, 20 mM DTT); or buffer 2: pH 7.5, 10 mM DTT; […]
PhrB Y460F = molecular target: T3, PhrB Y460F; assay: as above
PhrB Y424F = molecular target: T4, PhrB Y424F; assay: as above

Row | Binder | Kd (PhrB) [µM] | Kd (PhrB Y430F) [µM] | Kd (PhrB Y460F) [µM] | Kd (PhrB Y424F) [µM]
1 | B1 | 0.013 ± 0.002 | 0.027 ± 0.003 | 0.025 ± 0.003 | 18 ± 2
2 | B2 | 25 ± 3 | 27 ± 2 | 25 ± 3 | 28 ± 3
